These sequences were tested on Fer (mouse) (assay: phosphorylation enrichment, bacterial display (enrichment ratio); higher = better substrate or ligand; peptides without Tyr show the background).
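Also: 11-residue human phosphosite peptides and single-mutation variants displayed on the E. coli surface, counted by deep sequencing, each peptide's frequency after selection divided by its frequency in the unselected input library; frequency after pTyr selection over input frequency; kinase dosed for 20-30% of maximal phosphorylation in three min.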

Sequence	phosphorylation enrichment
AFGTVYKGLWI [EGFR_Y727]	0.511
EYGRRYGFSRQ [CCDC93_Y209]	0.309
RLASVYTKRCS [CPT2_Y508_P504L]	0.414
TLQVMYGCDVG [HLA-B_Y123_S121V]	0.509
PVEAAYQKVVA [HBB_Y131_Q128E]	0.558
LYSINYLHFGE [KDM4C_Y201]	11.1
SSVKLYRVYCD [FGB_Y266_P265L]	0.531
VTVLDYDKTGK [SYT1_Y365_I368T]	0.411
HFGCVYHGTLL [MET_Y1093]	0.967
REGAKYVSHGT [ASS1_Y113_A118T]	0.375
SLLVVYPWTQR [HBB_Y36_R31S]	0.398
WQQQSYLDSEI [CTNNB1_Y30_G34E]	0.514
PVKSEYSSIKL [NPC2_Y119_P120S]	0.702
QKKPCYEIRWK [PDGFRB_Y562_R561C]	1.02
VEFAKYGSLQG [RET_Y809_R813Q_YF]	0.44
SIKDKHVTALY [KCNH2_Y611_Y611H]	0.388
KNNDGYIDYAE [MCFD2_Y135]	0.464

Sequence	phosphorylation enrichment
EEGENYQKGEQ [CHGB_Y173_R178Q]	0.51
EDSEYYRAFEE [CASQ2_Y179_K180R]	0.518
SYDLDYDSVQP [MYC_Y16_N11S]	0.995
SNKLFYQLEQE [PDPR_Y110_YF]	0.583
GCAGKYIAMVM [CYP19A1_Y441]	0.513
FEEDPYLVVNP [MCM6_Y810_YF]	0.886
DLAHKYHGGGG [HBB_Y146_A141D]	0.32
AIIGIYILRDN [CDH23_Y2949_D2954N]	0.596
NTDETYCIDNE [TUBB2B_Y200]	0.724
LFSINYLHFGE [KDM4C_Y201_YF]	0.822
QGIPRYHSQSP [FOXF1_Y331]	0.744
RDLEQYVNNVN [PCDH19_Y1097]	0.356
KEEEDYKEENN [BMS1_Y651]	0.55
SISLKYEGRVF [ABL1_Y167_R166K_YF]	0.565
TIQMMYGCDVG [HLA-A_Y123_I121M]	0.532
KIDAKYKKKIE [WDR19_Y1230]	0.401

The sequences below were run against Fyn (UniProt P06241) in the same assay as above.
Sequence of Fyn (P06241 whole entry, looked up): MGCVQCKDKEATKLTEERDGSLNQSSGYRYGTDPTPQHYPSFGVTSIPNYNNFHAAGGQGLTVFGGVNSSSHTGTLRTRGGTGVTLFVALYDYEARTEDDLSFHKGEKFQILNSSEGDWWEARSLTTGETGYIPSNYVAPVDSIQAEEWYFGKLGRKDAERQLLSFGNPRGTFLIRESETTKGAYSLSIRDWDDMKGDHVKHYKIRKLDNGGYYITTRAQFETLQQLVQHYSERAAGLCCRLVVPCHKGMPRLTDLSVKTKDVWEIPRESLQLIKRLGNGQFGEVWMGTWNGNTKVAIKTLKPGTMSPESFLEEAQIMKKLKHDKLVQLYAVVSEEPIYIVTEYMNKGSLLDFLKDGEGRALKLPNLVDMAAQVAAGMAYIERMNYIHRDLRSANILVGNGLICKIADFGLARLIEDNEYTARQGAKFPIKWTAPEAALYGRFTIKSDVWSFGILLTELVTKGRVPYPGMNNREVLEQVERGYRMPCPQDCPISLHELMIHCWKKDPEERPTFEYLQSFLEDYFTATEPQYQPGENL

Sequence	phosphorylation enrichment
AFGTVYKGLWI [EGFR_Y727]	0.593
EYGRRYGFSRQ [CCDC93_Y209]	0.424
RLASVYTKRCS [CPT2_Y508_P504L]	0.528
TLQVMYGCDVG [HLA-B_Y123_S121V]	0.508
PVEAAYQKVVA [HBB_Y131_Q128E]	0.56
LYSINYLHFGE [KDM4C_Y201]	3.5
SSVKLYRVYCD [FGB_Y266_P265L]	0.479
VTVLDYDKTGK [SYT1_Y365_I368T]	0.442
HFGCVYHGTLL [MET_Y1093]	1.08
REGAKYVSHGT [ASS1_Y113_A118T]	0.363
SLLVVYPWTQR [HBB_Y36_R31S]	0.516
WQQQSYLDSEI [CTNNB1_Y30_G34E]	0.437
PVKSEYSSIKL [NPC2_Y119_P120S]	0.553
QKKPCYEIRWK [PDGFRB_Y562_R561C]	0.983
VEFAKYGSLQG [RET_Y809_R813Q_YF]	0.556
SIKDKHVTALY [KCNH2_Y611_Y611H]	0.409
KNNDGYIDYAE [MCFD2_Y135]	0.536

Sequence	phosphorylation enrichment
EEGENYQKGEQ [CHGB_Y173_R178Q]	0.519
EDSEYYRAFEE [CASQ2_Y179_K180R]	0.765
SYDLDYDSVQP [MYC_Y16_N11S]	0.723
SNKLFYQLEQE [PDPR_Y110_YF]	1.45
GCAGKYIAMVM [CYP19A1_Y441]	0.461
FEEDPYLVVNP [MCM6_Y810_YF]	1.88
DLAHKYHGGGG [HBB_Y146_A141D]	0.373
AIIGIYILRDN [CDH23_Y2949_D2954N]	0.925
NTDETYCIDNE [TUBB2B_Y200]	0.795
LFSINYLHFGE [KDM4C_Y201_YF]	0.624
QGIPRYHSQSP [FOXF1_Y331]	0.796
RDLEQYVNNVN [PCDH19_Y1097]	0.405
KEEEDYKEENN [BMS1_Y651]	0.475
SISLKYEGRVF [ABL1_Y167_R166K_YF]	0.477
TIQMMYGCDVG [HLA-A_Y123_I121M]	0.525
KIDAKYKKKIE [WDR19_Y1230]	0.308

Each sequence was assayed on AncSZ in the same assay as above.

Sequence	phosphorylation enrichment
AFGTVYKGLWI [EGFR_Y727]	1.2
EYGRRYGFSRQ [CCDC93_Y209]	0.577
RLASVYTKRCS [CPT2_Y508_P504L]	0.917
TLQVMYGCDVG [HLA-B_Y123_S121V]	1.1
PVEAAYQKVVA [HBB_Y131_Q128E]	0.819
LYSINYLHFGE [KDM4C_Y201]	2.05
SSVKLYRVYCD [FGB_Y266_P265L]	1.06
VTVLDYDKTGK [SYT1_Y365_I368T]	0.591
HFGCVYHGTLL [MET_Y1093]	1.8
REGAKYVSHGT [ASS1_Y113_A118T]	0.73
SLLVVYPWTQR [HBB_Y36_R31S]	1.05
WQQQSYLDSEI [CTNNB1_Y30_G34E]	0.792
PVKSEYSSIKL [NPC2_Y119_P120S]	0.783
QKKPCYEIRWK [PDGFRB_Y562_R561C]	1.43
VEFAKYGSLQG [RET_Y809_R813Q_YF]	0.663
SIKDKHVTALY [KCNH2_Y611_Y611H]	0.587
KNNDGYIDYAE [MCFD2_Y135]	1.17

Sequence	phosphorylation enrichment
EEGENYQKGEQ [CHGB_Y173_R178Q]	1.28
EDSEYYRAFEE [CASQ2_Y179_K180R]	2.96
SYDLDYDSVQP [MYC_Y16_N11S]	2.5
SNKLFYQLEQE [PDPR_Y110_YF]	1.25
GCAGKYIAMVM [CYP19A1_Y441]	1
FEEDPYLVVNP [MCM6_Y810_YF]	1.87
DLAHKYHGGGG [HBB_Y146_A141D]	0.441
AIIGIYILRDN [CDH23_Y2949_D2954N]	1.36
NTDETYCIDNE [TUBB2B_Y200]	1.47
LFSINYLHFGE [KDM4C_Y201_YF]	1.35
QGIPRYHSQSP [FOXF1_Y331]	1.01
RDLEQYVNNVN [PCDH19_Y1097]	1.06
KEEEDYKEENN [BMS1_Y651]	1.15
SISLKYEGRVF [ABL1_Y167_R166K_YF]	1.05
TIQMMYGCDVG [HLA-A_Y123_I121M]	1.22
KIDAKYKKKIE [WDR19_Y1230]	0.698

What follows are sequences tested against MERTK (UniProt Q12866) in the same assay as above.
Sequence of MERTK (Q12866 whole entry, looked up): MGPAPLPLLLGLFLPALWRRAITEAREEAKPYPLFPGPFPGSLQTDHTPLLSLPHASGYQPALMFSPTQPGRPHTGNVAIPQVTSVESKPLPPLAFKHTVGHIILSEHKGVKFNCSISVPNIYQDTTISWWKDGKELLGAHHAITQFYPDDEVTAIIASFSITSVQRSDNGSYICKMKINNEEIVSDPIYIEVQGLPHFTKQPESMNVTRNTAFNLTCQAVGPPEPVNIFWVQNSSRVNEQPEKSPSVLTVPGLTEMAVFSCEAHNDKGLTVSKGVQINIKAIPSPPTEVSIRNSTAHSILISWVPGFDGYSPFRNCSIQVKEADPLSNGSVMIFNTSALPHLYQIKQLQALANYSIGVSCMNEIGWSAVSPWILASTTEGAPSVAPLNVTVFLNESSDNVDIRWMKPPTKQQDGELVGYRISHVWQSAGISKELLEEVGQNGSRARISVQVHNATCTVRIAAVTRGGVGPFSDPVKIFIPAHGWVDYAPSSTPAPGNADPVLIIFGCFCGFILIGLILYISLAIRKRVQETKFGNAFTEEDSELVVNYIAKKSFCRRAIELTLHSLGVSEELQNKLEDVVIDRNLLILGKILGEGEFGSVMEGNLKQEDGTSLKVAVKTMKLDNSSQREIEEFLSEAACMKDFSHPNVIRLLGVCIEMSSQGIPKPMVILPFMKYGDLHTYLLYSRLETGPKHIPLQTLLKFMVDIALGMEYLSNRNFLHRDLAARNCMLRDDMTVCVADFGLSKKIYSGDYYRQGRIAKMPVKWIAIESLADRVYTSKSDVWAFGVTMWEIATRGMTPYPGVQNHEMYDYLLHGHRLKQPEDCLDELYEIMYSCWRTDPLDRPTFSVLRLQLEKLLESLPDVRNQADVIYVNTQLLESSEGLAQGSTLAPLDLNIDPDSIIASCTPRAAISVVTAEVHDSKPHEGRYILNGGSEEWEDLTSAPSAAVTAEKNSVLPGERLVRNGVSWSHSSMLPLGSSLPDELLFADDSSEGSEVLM

Sequence	phosphorylation enrichment
AFGTVYKGLWI [EGFR_Y727]	0.39
EYGRRYGFSRQ [CCDC93_Y209]	0.534
RLASVYTKRCS [CPT2_Y508_P504L]	0.316
TLQVMYGCDVG [HLA-B_Y123_S121V]	0.56
PVEAAYQKVVA [HBB_Y131_Q128E]	0.52
LYSINYLHFGE [KDM4C_Y201]	11
SSVKLYRVYCD [FGB_Y266_P265L]	0.459
VTVLDYDKTGK [SYT1_Y365_I368T]	0.335
HFGCVYHGTLL [MET_Y1093]	0.637
REGAKYVSHGT [ASS1_Y113_A118T]	0.663
SLLVVYPWTQR [HBB_Y36_R31S]	0.374
WQQQSYLDSEI [CTNNB1_Y30_G34E]	0.377
PVKSEYSSIKL [NPC2_Y119_P120S]	0.5
QKKPCYEIRWK [PDGFRB_Y562_R561C]	0.67
VEFAKYGSLQG [RET_Y809_R813Q_YF]	0.384
SIKDKHVTALY [KCNH2_Y611_Y611H]	0.345
KNNDGYIDYAE [MCFD2_Y135]	0.474

Sequence	phosphorylation enrichment
EEGENYQKGEQ [CHGB_Y173_R178Q]	0.561
EDSEYYRAFEE [CASQ2_Y179_K180R]	0.497
SYDLDYDSVQP [MYC_Y16_N11S]	0.443
SNKLFYQLEQE [PDPR_Y110_YF]	0.508
GCAGKYIAMVM [CYP19A1_Y441]	0.569
FEEDPYLVVNP [MCM6_Y810_YF]	0.533
DLAHKYHGGGG [HBB_Y146_A141D]	0.452
AIIGIYILRDN [CDH23_Y2949_D2954N]	0.423
NTDETYCIDNE [TUBB2B_Y200]	0.598
LFSINYLHFGE [KDM4C_Y201_YF]	0.634
QGIPRYHSQSP [FOXF1_Y331]	1.22
RDLEQYVNNVN [PCDH19_Y1097]	0.612
KEEEDYKEENN [BMS1_Y651]	0.422
SISLKYEGRVF [ABL1_Y167_R166K_YF]	0.382
TIQMMYGCDVG [HLA-A_Y123_I121M]	0.408
KIDAKYKKKIE [WDR19_Y1230]	0.418

From the supplement of paper PMC10065799, “High-throughput profiling of sequence recognition by tyrosine kinases and SH2 domains using bacterial peptide display” (eLife, 2023)
